Data as given in article PMC4231745.

Experiments:
[1] = target: His-MS2-MBP (MS2 coat protein fused to maltose binding protein) (bacteriophage MS2) (UniProt P03612); experiment: SPR; details: kon/koff fit, HBS-EP+; SPR: HBS-EP+ running buffer, Biacore X100, binding temperature not given; gel cleavage: 500 uM MgCl2, 150 mM NaCl, 1 mM DTT, 10 mM HEPES pH 7.4, 37 C
[2] = target: His-MS2-MBP (MS2 coat protein fused to maltose binding protein) (bacteriophage MS2) (UniProt P03612); experiment: ribozyme cleavage inhibition (gel); details: SPR: HBS-EP+ running buffer, Biacore X100, binding temperature not given; gel cleavage: 500 uM MgCl2, 150 mM NaCl, 1 mM DTT, 10 mM HEPES pH 7.4, 37 C

UniProt P03612, sequence (P03612 whole entry, the tested form may be a part): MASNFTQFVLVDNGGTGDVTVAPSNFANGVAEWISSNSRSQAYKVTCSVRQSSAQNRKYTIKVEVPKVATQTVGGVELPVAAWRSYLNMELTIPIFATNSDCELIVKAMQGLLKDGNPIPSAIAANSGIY

Sequence | Kd [1] [nM] | IC50 [2] [nM]
GCUGUCACCGGAUGUGCUUUCCGGUCUGAUGAGUCCGUUGUCCUAGGAUCACCAGGAAGGGACGGAGGACGAAACAGC [MS2-A7] | 279 | –
GCUGUCACCGGAUGUGGUUUCCGGUCUGAUGAGUCCGACCAUCAGGAGGACGAAACAGC [MS2-B2] | 237 | –
GCUGUCACCGGAUGUGCUUUCCGGUCUGAUGAGUCCGUUGUCCAGGAUCACCGGACGGGACGGAGGACGAAACAGC [MS2-A1] | 24.5 | 63
GCUGUCACCGGAAUCAAGGUCCGGUCUGAUGAGUCCGACCAUCAGGAGGACGAAACAGC [MS2-B3] | 296 | –
GCUGUCACCGGAAUCAAGGUCCGGUCUGAUGAGUCCGUUGUCCACCAUCAGGGGACGGGACGGAGGACGAAACAGC [MS2-A2] | 6.08 | 19
GCUGUCACCGGAUGUGCUUUCCGGUCUGAUGAGUCCGUGGUCCACCAUCAGGGGACUGGACUGAGGACGAAACAGC [MS2-A3] | 253 | –
GCUGUCACCGGAUGUGCUUUCCGGUCUGAUGAGUCCGUUGCGUAGGAUCACCACGUGGCGCGGAGGACGAAACAGC [MS2-A8] | 50 | –
GCUGUCACCGGAUGUGCUGCAGGAUCACCGCAUUUCCGGUCUGAUGAGUCCGUGAGGACGAAACAGC [MS2-B1] | 630 | –
GCUGUCACCGGAUUCGGGAUCCGGUCUGAUGAGUCCGACCAUCAGGAGGACGAAACAGC [MS2-B4] | 224 | –
